Here are results for two molecules from patent publication US20240307497A1, “ADIPONECTIN ALONE OR IN COMBINATION WITH EXTRACORPOREAL PHOTOPHERESIS (ECP) FOR IMMUNE RELATED ADVERSE EVENTS OF IMMUNE CHECKPOINT INHIBITORS” (Mallinckrodt Pharmaceuticals Ireland Limited, priority 2022, published 2024).

“Also recorded” adds a separate entry of the source.

In experiment [1] the test system is DSS/anti-CTLA4-induced colitis. The experiment can be described thus: DSS/anti-CTLA4-induced colitis model. In kind it is in vivo, mice. To be noted: AdipoRon vs vehicle; FIGS. S10a-S10d. As for the experimental part:
For the induction of acute colitis, mice received 3% Dextran Sodium Sulfate (DSS colitis grade, 36-50 kDa; MP Biomedicals) in drinking water from day 0 to day 3, followed by normal drinking water. Mice were injected i.p. with 0.2 mg immune checkpoint inhibitor (ICI) or the respective isotype controls on days 0, 3 and 6 of the experiment. Recipients were transplanted i.v. with 107 ECP-treated donor splenocytes on days 3 and 6. In some experiments, steroid, adiponectin or AdipoRon were applied daily from days 3-7. Arginase-1 inhibitor was applied twice per day from days 4-7. STAT6 or PPARγ inhibitors were applied from day 4-7. Mice were injected with Clodrosomes on days 1, 3, 5 and 7. […]
(§1) Colon, liver, skin and lung were harvested, formalin-fixed and paraffin embedded. Sections were stained with H&E and scored by an experienced pathologist, based on histopathological characterization of human irAEs, including lymphocyte and neutrophil infiltration, crypt abscesses, and apoptotic cells on a scale from 0 (absent) to 2 (massive). […]
For quantification of adiponectin concentrations in murine serum specimen, blood was harvested by retroorbital bleeding and serum was isolated by centrifugation. Adiponectin concentrations were measured using Adiponectin Mouse ELISA Kit (ThermoFisher) at 20,000-fold dilution.

In experiment [2] the test system is DSS/anti-PD1-induced colitis. Nature of the experiment: DSS/anti-PD1-induced colitis model. The format is in vivo, mice. The note with it: for ICI-induced colonic inflammation, combination with ECP: ECP plus agent vs ECP plus vehicle, FIGS. 4i-p; for severity of ICI-induced colitis (bodyweight, colon length, neutrophil and lymphocyte infiltration): monotherapy vs vehicle, daily days 3-7, FIGS. 4a-h. As for the experimental part:
For modeling ECP transplantation in vivo, splenocytes of donor mice were used. Donor animals were treated identically to the respective recipient groups. Spleens were harvested, meshed and erythrocytes were lysed. Splenocytes were resuspended to 3-5×10^6 cells/mL in RPMI, supplemented with 10% FCS and 1% P/S, and treated with 200 ng/mL 8-methoxypsoralen (8-MOP; Uvadex©, Therakos) at 37° C. and 5% CO2 for 30 min. Following incubation, the cells were exposed to UVA light (2 J/cm2) in a calibrated BS-02 irradiation chamber, operated in dose-controlled mode (Opsytec Dr. Gröbel). ECP-treated splenocytes were resuspended in PBS and […] were injected intravenously into recipient mice. Where indicated, PBMCs were treated with ECP comparably to splenocytes and 107 PBMCs were injected intravenously into recipient mice. PBMCs from mouse EDTA-blood were isolated using Ficoll-Paque PREMIUM 1.084 (Cytiva). For ECP-treatment of epithelial cells, 6×10^6 MODE-K cells were seeded onto 10 cm dishes one day before ECP-treatment. The next day, cells were treated with 8-methoxypsoralen and UVA light in a calibrated BS-02 irradiation chamber. Cells were washed with PBS and 2×10^6 ECP-treated MODE-K cells were injected intravenously into recipient mice.
For the induction of acute colitis, mice received 3% Dextran Sodium Sulfate (DSS colitis grade, 36-50 kDa; MP Biomedicals) in drinking water from day 0 to day 3, followed by normal drinking water. Mice were injected i.p. with 0.2 mg immune checkpoint inhibitor (ICI) or the respective isotype controls on days 0, 3 and 6 of the experiment. Recipients were transplanted i.v. with 107 ECP-treated donor splenocytes on days 3 and 6. In some experiments, steroid, adiponectin or AdipoRon were applied daily from days 3-7. Arginase-1 inhibitor was applied twice per day from days 4-7. STAT6 or PPARγ inhibitors were applied from day 4-7. Mice were injected with Clodrosomes on days 1, 3, 5 and 7. If not indicated differently, mice were sacrificed in day 8 by retroorbital bleeding to harvest serum and organs which were harvested for histopathological scoring and gene expression analysis.
ICI treatment consisted of either 0.2 mg anti-PD1 (mouse, clone RMP1-14; Ichorbio) or 0.2 mg anti-CTLA4 (mouse, clone 9D9; Ichorbio) per injection intraperitoneally. Controls were Rat IgG2a Isotype Control (clone 1-1, Ichorbio) and Mouse IgG2b Isotype Control (clone MPC-11, Ichorbio), respectively. […]
as §1

Experiment [3] concerns F4/80^+ macrophages (BMDMs). The experiment can be described thus: Arg1 in BMDMs exposed to recombinant adiponectin or AdipoRon. In kind it is cell-based, mouse. To be noted: increasing concentrations, 48 h, vs vehicle. As for the experimental part:
BMDMs were generated from bone marrow after erythrocyte lysis. Cells were cultured in RPMI supplemented with 10% FCS, 1% P/S and 20 ng/mL rmM-CSF (Peprotech). Culture medium was replaced on days 5 and 6. Cells were used on day 7 with a purity >95%, confirmed by surface CD11b and F4/80 expression. BMDMs (M0) were polarized for 16 h into M1 with 50 ng/mL rmIFNγ (Peprotech) and 20 ng/mL LPS (Sigma), or into M2 with 20 ng/mL rmIL-4 (Peprotech). If indicated, BMDMs were treated with increasing concentrations of recombinant adiponectin/Acrp30 (GenScript) or AdipoRon (MedChemExpress) for 48 h.
Spleens were isolated, meshed and erythrocytes were lysed. Single cell suspensions of tissues were prepared as described. Viability was analyzed by either Zombie NIR fixable dye (BioLegend) or LIVE/DEAD Fixable Aqua (Invitrogen) staining. Fc receptors were blocked with anti-mouse CD16/CD32 (BioLegend) for 10 min at 4° C., followed by surface staining with fluorochrome-conjugated antibodies for 30 min at 4° C. […] Antigen-specific CD8 T-cells were analyzed after H-2Kb/OVA^257-264 dextramer staining (Immudex). […] All data were acquired on a BD LSR Fortessa (BD Biosciences) and analyzed with FlowJo v10 (TreeStar). […] Data was acquired with a Canto II flow cytometer (BD Biosciences) and analyzed using FACSDiva Software V6 (BD Biosciences).

For experiment [4], the system named is DSS/anti-PD1-induced colitis. The experiment can be described thus: Adoptive transfer of adiponectin-treated T-cells into colitis mice. The note with it: adiponectin-treated vs vehicle-treated T-cells. In kind it is in vivo. As to the method: (§2) Splenic T-cells were isolated from C57BL/6 donors using Pan T-cell isolation kit II (Miltenyi) and activated using anti-CD3/CD28 beads (ThermoScientific) in the presence of 30 U/mL rmIL2 (Peprotech). T-cells were treated with 9 μg/mL recombinant murine adiponectin (GenScript) or vehicle for 72 h. C57BL/6 recipients received 1% DSS (MP Biomedicals) in drinking water from day 0 to day 3, followed by normal drinking water to induce mild colitis. Mice were injected i.p. with 0.2 mg anti-PD1 on day 0, day 3 and day 6 of the experiment. On day 4, activation beads were removed, T-cells were washed and 5×106 T-cells were intravenously injected into colitis animals. Colitis tissue was harvested on day 8. T-cells were stained for CD25 surface expression to determine activation.
Colon, liver, skin and lung were harvested, formalin-fixed and paraffin embedded. Sections were stained with H&E and scored by an experienced pathologist, based on histopathological characterization of human irAEs, including lymphocyte and neutrophil infiltration, crypt abscesses, and apoptotic cells on a scale from 0 (absent) to 2 (massive). Scoring was done blinded to the experimental group.

Experiment [5] has as its system pan T-cells. Nature of the experiment: T-cell activation with anti-CD3/CD28 beads in the presence of adiponectin. In kind it is cell-based, mouse. The note with it: 72 h, vs vehicle. As to the method: as §2
Spleens were isolated, meshed and erythrocytes were lysed. Single cell suspensions of tissues were prepared as described. Viability was analyzed by either Zombie NIR fixable dye (BioLegend) or LIVE/DEAD Fixable Aqua (Invitrogen) staining. […] Antigen-specific CD8 T-cells were analyzed after H-2Kb/OVA^257-264 dextramer staining (Immudex). […] All data were acquired on a BD LSR Fortessa (BD Biosciences) and analyzed with FlowJo v10 (TreeStar). […] Data was acquired with a Canto II flow cytometer (BD Biosciences) and analyzed using FACSDiva Software V6 (BD Biosciences).

Turning to `O=C(COc1ccc(C(=O)c2ccccc2)cc1)NC1CCN(Cc2ccccc2)CC1` [AdipoRon], in experiment [1], the “DSS/anti-CTLA4-induced colitis / intestinal inflammation” value is listed as “reduced anti-CTLA-4-induced colitis; also recorded: also in DSS/anti-CTLA4-induced intestinal inflammation”. Further, in experiment [2], the “ICI-induced colonic inflammation, combination with ECP” value is “synergized with ECP to reduce ICI-induced colonic inflammation”; the “severity of ICI-induced colitis (bodyweight, colon length, neutrophil and lymphocyte infiltration)” value is “effective in anti-PD1-mediated colitis”. Moreover, the “Arg1 (MFI) in BMDMs” value in experiment [3] is given as “upregulation of immunosuppressive Arg1”.

B1: adiponectin: recombinant murine adiponectin (GenScript); protein hormone and adipokine (protein, UniProt Q60994 18-247, looked up)
Adiponectin: EDDVTTTEELAPALVPPPKGTCAGWMAGIPGHPGHNGTPGRDGRDGTPGEKGEKGDAGLLGPKGETGDVGMTGAEGPRGFPGTPGRKGEPGEAAYVYRSAFSVGLETRVTVPNVPIRFTKIFYNQQNHYDGSTGKFYCNIPGLYYFSYHITVYMKDVKVSLFKKDKAVLFTYDQYQEKNVDQASGSVLLHLEVGDQVWLQVYGDGDHNGLYADNVNDSTFTGFLLYHDTN
On to B1, for which, in experiment [2], the “ICI-induced colonic inflammation, combination with ECP” value was “synergized with ECP to reduce ICI-induced colonic inflammation”; the “severity of ICI-induced colitis (bodyweight, colon length, neutrophil and lymphocyte infiltration)” value is listed as “reduce the severity of colitis”. In addition, in experiment [3], the “Arg1 (MFI) in BMDMs” value is recorded as “upregulation of immunosuppressive Arg1”. The “colitis severity in recipients of treated T-cells” value in experiment [4] is reported as “Colitis severity was lower”. Besides, the “CD25 expression on CD4^+ and CD8^+ T-cells” value in experiment [5] (9 μg/mL) is “reduced the expression of CD25”. In experiment [5], the “FoxP3 expression and CD4^+/CD8^+ T-cell frequencies” value is “no effect on FoxP3 expression and CD4^+/CD8^+ T-cell frequencies”.
